The target in assay [1] is human SEZ6 on patient-derived NTX tumor cells (human) (UniProt Q53EL9). As to the kind of experiment: flow cytometry, LU117 NTX tumor cells, dot plot CD324 against MOPC isotype control, gate at 10^3. On the technique in general: In flow cytometry, cells or beads pass a laser one at a time.
The target is the same in assay [2]. In words: flow cytometry, LU86 NTX tumor cells, dot plot CD324 against MOPC isotype control.
Assay [3] shares this target. As to the kind of experiment: flow cytometry, LU64 NTX tumor cells, dot plot CD324 against MOPC isotype control, gate at 10^3.
The target of assay [4] is T1, recombinant rat SEZ6 ECD with 9-Histidine tag (rat, UniProt Q7TSK2 20-922 (mouse entry)).
T1 construct: also called rSEZ6-ECD-His; rat recombinant SEZ6-His
T1 chain: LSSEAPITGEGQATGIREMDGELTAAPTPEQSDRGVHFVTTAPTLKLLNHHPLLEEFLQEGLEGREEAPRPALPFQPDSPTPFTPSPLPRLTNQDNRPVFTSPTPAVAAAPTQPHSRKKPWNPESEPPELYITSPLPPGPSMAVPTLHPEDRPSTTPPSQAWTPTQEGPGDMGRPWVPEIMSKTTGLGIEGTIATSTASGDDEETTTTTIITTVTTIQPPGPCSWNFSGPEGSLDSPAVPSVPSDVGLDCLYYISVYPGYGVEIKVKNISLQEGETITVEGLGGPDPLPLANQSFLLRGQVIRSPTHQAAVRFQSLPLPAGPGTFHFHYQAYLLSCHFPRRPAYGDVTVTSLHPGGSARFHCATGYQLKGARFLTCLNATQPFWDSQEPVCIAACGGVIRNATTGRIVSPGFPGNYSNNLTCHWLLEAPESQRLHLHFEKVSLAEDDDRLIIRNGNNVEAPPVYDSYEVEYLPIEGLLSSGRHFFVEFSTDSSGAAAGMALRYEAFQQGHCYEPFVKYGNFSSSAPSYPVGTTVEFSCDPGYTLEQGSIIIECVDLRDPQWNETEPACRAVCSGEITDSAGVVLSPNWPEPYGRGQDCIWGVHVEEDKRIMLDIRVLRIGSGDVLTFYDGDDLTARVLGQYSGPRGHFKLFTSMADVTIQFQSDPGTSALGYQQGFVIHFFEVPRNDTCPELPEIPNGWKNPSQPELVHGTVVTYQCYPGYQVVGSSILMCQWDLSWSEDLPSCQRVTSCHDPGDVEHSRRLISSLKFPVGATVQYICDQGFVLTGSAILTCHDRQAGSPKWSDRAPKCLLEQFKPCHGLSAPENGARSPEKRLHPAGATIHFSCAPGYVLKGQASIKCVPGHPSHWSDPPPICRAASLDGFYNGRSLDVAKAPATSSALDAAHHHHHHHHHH
In words: assay not given.

Assay [5] has as its target T2, cynomolgus SEZ6 extracellular domain displayed on yeast (cynomolgus, UniProt Q53EL9 23-925 (human entry)).
T2 construct: also called cSEZ6; cynomolgus SEZ6 ECD
T2 chain: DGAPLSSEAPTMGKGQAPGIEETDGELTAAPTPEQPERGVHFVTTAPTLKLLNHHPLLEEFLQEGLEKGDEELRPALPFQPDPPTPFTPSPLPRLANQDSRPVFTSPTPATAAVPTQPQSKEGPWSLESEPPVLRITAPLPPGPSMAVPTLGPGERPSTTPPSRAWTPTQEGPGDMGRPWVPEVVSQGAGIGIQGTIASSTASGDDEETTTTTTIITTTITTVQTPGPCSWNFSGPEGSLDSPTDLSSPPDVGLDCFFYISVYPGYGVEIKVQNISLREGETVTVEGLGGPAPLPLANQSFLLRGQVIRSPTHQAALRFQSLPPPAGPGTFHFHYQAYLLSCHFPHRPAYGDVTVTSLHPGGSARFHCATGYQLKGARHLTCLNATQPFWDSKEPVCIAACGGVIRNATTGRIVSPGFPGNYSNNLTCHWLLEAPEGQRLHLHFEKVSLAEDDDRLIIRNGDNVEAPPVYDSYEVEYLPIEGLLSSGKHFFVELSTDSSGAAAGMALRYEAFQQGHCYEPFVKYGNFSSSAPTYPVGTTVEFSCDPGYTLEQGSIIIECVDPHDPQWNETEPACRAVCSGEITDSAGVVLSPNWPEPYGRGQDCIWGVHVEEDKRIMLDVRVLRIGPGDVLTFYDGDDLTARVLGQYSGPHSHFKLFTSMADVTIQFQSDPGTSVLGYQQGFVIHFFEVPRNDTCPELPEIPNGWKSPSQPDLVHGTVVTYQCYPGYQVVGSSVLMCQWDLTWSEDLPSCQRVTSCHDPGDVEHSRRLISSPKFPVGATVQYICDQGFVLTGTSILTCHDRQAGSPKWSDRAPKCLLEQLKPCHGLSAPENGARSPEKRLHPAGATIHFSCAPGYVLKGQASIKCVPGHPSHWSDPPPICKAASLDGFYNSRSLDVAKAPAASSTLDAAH
In words: assay not given.

The target of assay [6] is human SEZ6 on patient-derived NTX tumor cells (human) (UniProt Q53EL9). In words: flow cytometry, LU64 NTX tumor cells, dot plot CD324 against SC17.42, gate at 10^3.
The target is the same in assay [7]. In words: flow cytometry on LU100 NTX tumor cells; FMO (MFI) of the same line 289.
In assay [8] the target is human SEZ6 overexpressed on HEK-293T cells (human, UniProt Q53EL9 20-994). As to the kind of experiment: cell-based or functional assay.

For MOPC (antibody), the % of cells CD324+ and MOPC+ (upper right quadrant) is 0.347% in assay [1], 0.483% in assay [2] and 0.597% in assay [3]. For the same molecule, the % of cells CD324- and MOPC+ (lower right quadrant) stood at 0.05% in assay [1] and 0.014% in assay [2].

B1: SC17.46 (antibody, V domains shown)
VH: QVQLQQPGAELVKPGASMKLSCKASGYTFTSYWINWVKQRPGQGLEWIGNIFPDTTTTNYNEKFKSKATLTVDTSSSTAYMQLSSLTSDDSAVYYCAREYYDGTYDAMDYWGQGTSVTVS
VL: SFVMTQTPKFLLVSAGDRVTITCKASQSVNNDVAWYQQKPGQSPKLLIYYASNRYTGVPDRFTGSGYGTDFTFTISTVQAEDLAVYFCQQDYSSPRTFGGGTKLEIK
notes: murine mAb
For B1, the binding result in assay [4] and in assay [5] was “no binding” throughout.

B2: SC17.42 (antibody, from a related filing, V domains shown)
VH: DVKLVESGGGLVRPGGSLKLSCAASGFTFSRYTMSWVRQTPEKRLEWAATINSGGSNTYYPDSVKGRFTISRDNAKNTLFLQMSSLKSEDTAMYYCTNGNHWGQGTTLTVSS
VL: ENVLTQSPAIMSASPGEKVTMTCSASSSVNYMYWYQQKSSTSPKLWIYDTSKLTSGVPGRFSGSGSGNSYSLTISNMEAEDVATYYCFQGSGYPLTFGSGTKLEIK
In assay [6], B2 registered a % of cells CD324+ and SC17.42+ (upper right quadrant) of 27.7%; a % of cells CD324- and SC17.42+ (lower right quadrant) of 0.637%. Besides, the Tumor (MFI) in assay [7] came to 1400.

B3: hSC17.17-ADC1 (antibody, V domains shown)
VH: QVQLVQSGAEVKKPGASVKVSCKASGYTFTDYNMHWVRQAPGQGLEWMGEINPNIGGTGYNQKFKGRVTMTRDTSISTAYMELSRLRSDDTAVYYCARTYSYYSYEFAYWGQGTLVTVSS
VL: EIVLTQSPATLSLSPGERATLSCSASSSVSYMHWYQQKPGQAPRLLIYDTSKLPSGIPARFSGSGSGTDFTLTISSLEPEDFAVYYCQQWSSTPPTFGQGTKLEIK
modifications: PBD dimer (ADC1) through a maleimido linker on reduced Cys residues
B3: the “in vitro cytotoxicity, IC50” value in assay [8] amounted to 11 nM.

These data come from patent publication US20170369571A1 (AbbVie / Abbott, published 2017).
